Assays:
VEGF121 = VEGF121 (Homo sapiens, UniProt P15692-9 27-147); assay: SPR; SPR BIAcore 2000, CM5 chip, immobilized protein ~200 RU, PBS + Tween-20 running buffer (pH not stated), 25 C, aptamer 0.2-100 nM, 1:1 Langmuir fit; conditions: protein: recombinant; tags: carrier free; chain copies: 2; hairpin (CD)
VEGF165 = VEGF165 (Homo sapiens, UniProt P15692-4 27-191); assay: as above; conditions: protein: recombinant; tags: carrier free; chain copies: 2; hairpin (CD)
VEGF165, sequence (P15692 other isoform, or with tags, fused parts or gaps): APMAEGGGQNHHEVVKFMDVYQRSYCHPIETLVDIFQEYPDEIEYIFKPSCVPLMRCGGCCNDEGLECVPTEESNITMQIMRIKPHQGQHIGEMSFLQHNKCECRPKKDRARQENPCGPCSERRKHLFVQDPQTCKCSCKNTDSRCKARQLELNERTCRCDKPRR

VEGF121, sequence (P15692 other isoform, or with tags, fused parts or gaps): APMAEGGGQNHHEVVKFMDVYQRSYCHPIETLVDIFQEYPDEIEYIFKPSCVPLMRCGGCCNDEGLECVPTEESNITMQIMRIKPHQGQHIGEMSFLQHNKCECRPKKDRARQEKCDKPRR

B1: PS-modified SL2-B (XNA)
DNA: CAATTGGGCCCGTCCGTATGGTGGGT
modifications: phosphorothioate linkages C1*A2 and G25*T26
Question: Which results are given for B1?
Answer: Kd (VEGF121): 17 ± 1.24 µM; Kd (VEGF165): 0.00056 ± 0.00044 µM
